In US20170157212:

System: purified recombinant CRIF1

Substance: HA-tagged full-length human CDK12
- CDK12-mediated phosphorylation of the human GST-CTD substrate in vitro (immunoblot, CTD-Ser2P): recombinant CRIF1 potently inhibited CDK12-mediated phosphorylation of the human GST-CTD substrate in vitro, in a dose-dependent manner
- S65 and T70 phosphorylation of recombinant 4E-BP1 in vitro (reactions with CDK12 and mTORC1/Raptor): rCRIF1 potently and selectively inhibited S65 and T70 phosphorylation of 4E-BP1 in vitro, in a dose-dependent manner, without affecting phosphorylation of the T37/46 sites by mTORC1
